Tests used:
[1] = target: TraH expressed in E. faecalis JH2-2 (pEU327-RBS-traH) (Enterococcus faecalis (plasmid pIP501)); experiment: cross-linking; in vivo, E. faecalis JH2-2 (pEU327-RBS-traH) cells in early log phase, formaldehyde 0.5–2% in PBS for 10 minutes; SDS-PAGE and western blot
[2] = target: TraH, full length, purified and reconstituted in DDM micelles (Enterococcus faecalis (plasmid pIP501)); experiment: cross-linking; in vitro, 8 μg purified protein, 300 mM NaCl, 100 mM bicine, 1 mM DTT, glutaraldehyde 0–1% (v/v), 15 min at RT; full-length TraH kept in DDM micelles; SDS-PAGE and western blot
[3] = target: TraH, full length, purified and reconstituted in DDM micelles (Enterococcus faecalis (plasmid pIP501)); experiment: SEC; analytical SEC of full length TraH reconstituted in DDM micelles; 70 kDa taken for the micelle; apparent molecular weight
[4] = target: TraH, full length, purified and reconstituted in DDM micelles (Enterococcus faecalis (plasmid pIP501)); experiment: native gel or EMSA; semi-native PAGE: sample buffer without SDS and reducing agent, 4 °C, 12.5% native gels, running buffer with 0.1% SDS; full-length TraH in DDM micelles; western blot

Substance	stoichiometry N [1]	stoichiometry N [2]	stoichiometry N [3]	stoichiometry N [4]
TraH expressed in E. faecalis JH2-2 (pEU327-RBS-traH) (natural protein)	2			
TraH, full length, purified and reconstituted in DDM micelles (natural protein)		2	4	2

Source: article PMC4840375
